Laboratory results from US20230002478A1 (TWIST BIOSCIENCE, published 2023).

B1: 6-63 (Fc fusion)
chain: EVQLVESGGGLVQPGGSLRLSCAASGQTFNMGWFRQAPGKEREFVAAIGSGGSTSYADSVKGRFTISADNSKNTAYLQMNSLKPEDTAVYYCWRLGNDYFDYWGQGTLVTVSS
B2: 6-3 (Fc fusion)
chain: EVQLVESGGGLVQPGGSLRLSCAASGFTFSPSWMGWFRQAPGKEREFVATINEYGGRNYADSVKGRFTISADNSKNTAYLQMNSLKPEDTAVYYCARVDRDFDYWGQGTLVTVSS

What was measured:
[1] = molecular target: T1, SARS-CoV-2 S1 (HV69-70del, N501Y, D614G) (SARS-CoV-2, UniProt P0DTC2 16-685); test: SPR
T1 construct: domain: S1

[2] = molecular target: T2, SARS-CoV-2 S1 (HV69-70del, Y453F, D614G) (SARS-CoV-2, UniProt P0DTC2 16-685); test: SPR
T2 construct: domain: S1

| Binder | Kd [1] [nM] | Kd [2] [nM] |
| --- | --- | --- |
| B1 | 63 | 96 |
| B2 | 9.3 | 23 |
